The numbers were not newly measured in US12246031B2, “Compositions and methods for tumor immunotherapy” (CHECKMATE PHARMACEUTICALS, INC., priority 2018, dated 2025), which cites them from elsewhere.

The target of this data set is PD-L1 (Homo sapiens, UniProt Q9NZQ7). The note with it: anti-PD-L1 antibody in clinical development.
Chain of PD-L1 (Q9NZQ7 19-290): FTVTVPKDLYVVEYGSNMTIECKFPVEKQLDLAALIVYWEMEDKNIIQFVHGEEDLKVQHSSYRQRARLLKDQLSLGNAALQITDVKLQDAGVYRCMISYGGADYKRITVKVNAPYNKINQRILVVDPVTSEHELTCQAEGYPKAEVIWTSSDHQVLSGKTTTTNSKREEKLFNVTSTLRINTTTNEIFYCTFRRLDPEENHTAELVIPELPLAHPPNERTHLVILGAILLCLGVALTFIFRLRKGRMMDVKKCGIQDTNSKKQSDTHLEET

Take “MPDL3280A: anti-PD-L1 antibody under development in human clinical trials (Genetech/Roche)”: the Kd is 0.4 nM.
